The results in this text go back to the supplement of paper PMC5998384.

The subject of data set [1] is HeLa Kyoto. The data set can be described thus: solubility in G1/S (NP-40 vs SDS abundance) (log2 ratio); higher = more soluble. The following applies: cell cycle stage: G1/S.
In data set [2] the test system is HeLa Kyoto. The data set can be described thus: melting temperature (median over replicates), in situ; higher = more thermally stable.
Data set [3] deals with HeLa Kyoto. Kind of data set: solubility change mitosis vs G1/S (difference of NP-40 vs SDS log2 ratios) (log2 ratio difference); higher = more soluble in mitosis.
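Wherever melting temperature (median over replicates), in situ is given: HeLa Kyoto cells synchronized by double thymidine or nocodazole block, proteins quantified by TMT10plex mass spectrometry, three independent biological replicates.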
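Wherever solubility change mitosis vs G1/S (difference of NP-40 vs SDS log2 ratios) is given: synchronized HeLa Kyoto cells (double thymidine block for G1/S, nocodazole release for mitosis), protein amounts in NP-40 versus SDS lysates quantified by mass spectrometry, three biological replicates.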
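Wherever solubility in G1/S (NP-40 vs SDS abundance) is given: HeLa Kyoto cells arrested at G1/S by double thymidine block, proteins quantified by TMT10plex mass spectrometry in mild NP-40 versus SDS extracts, three biological replicates.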

Chain of LLPH (chain, as listed by the source): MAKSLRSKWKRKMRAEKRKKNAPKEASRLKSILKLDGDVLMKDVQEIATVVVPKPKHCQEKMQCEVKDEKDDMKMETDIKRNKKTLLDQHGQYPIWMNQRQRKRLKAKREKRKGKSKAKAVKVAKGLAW

Take ARSB: the “solubility in G1/S (log2)” value in data set [1] is 0.364. Also, the melting temperature in data set [2] (cell cycle stage: G1/S) worked out at 56.3 °C; in data set [2] (cell cycle stage: mitosis), 57.3 °C. In addition, the “solubility change mitosis (log2)” value in data set [3] was -0.198.
For CRYBG3, in that order: -0.18, 51.3 °C, 50.4 °C and -0.00814.
With GTF2H1, in data set [1], the “solubility in G1/S (log2)” value was -0.0948. The melting temperature in data set [2] (cell cycle stage: G1/S) was 50.2 °C; in data set [2] (cell cycle stage: mitosis), 49.1 °C. Further, the “solubility change mitosis (log2)” value in data set [3] came out at 0.114.
On to KIAA1217, for which the “solubility in G1/S (log2)” value in data set [1] worked out at 0.0766. The melting temperature in data set [2] (cell cycle stage: G1/S) came to 49.8 °C; in data set [2] (cell cycle stage: mitosis) it was 50.7 °C. Further, the “solubility change mitosis (log2)” value in data set [3] amounted to 0.0131.
For LLPH, in that order: -1.23, 58.7 °C, 55.8 °C and 1.03.
Take “MAAAAAALSGAGTPPAGGGAGGGGAGGGGSPPGGWAVARLEGREFEYLMKKRSVTIGRNSSQGSVDVSMGHSSFISRRHLEIFTPPGGGGHGGAAPELPPAQPRPDAGGDFYLRCLGKNGVFVDGVFQRRGAPPLQLPRVCTFRFPSTNIKITFTALSSEKREKQEASESPVKAVQPHISPLTINIPDTMAHLISPLPSPTGTISAANSCPSSPRGAGSSGYKVGRVMPSDLNLMADNSQPENEKEASGGDSPKDDSKPPYSYAQLIVQAITMAPDKQLTLNGIYTHITKNYPYYRTADKGWQNSIRHNLSLNRYFIKVPRSQEEPGKGSFWRIDPASESKLIEQAFRKRRPRGVPCFRTPLGPLSSRSAPASPNHAGVLSAHSSGAQTPESLSREGSPAPLEPEPGAAQPKLAVIQEARFAQSAPGSPLSSQPVLITVQRQLPQAIKPVTYTVATPVTTSTSQPPVVQTVHVVHQIPAVSVTSVAGLAPANTYTVSGQAVVTPAAVLAPPKAEAQENGDHREVKVKVEPIPAIGHATLGTASRIIQTAQTTPVQTVTIVQQAPLGQHQLPIKTVTQNGTHVASVPTAVHGQVNNAAASPLHMLATHASASASLPTKRHNGDQPEQPELKRIKTEDGEGIVIALSVDTPPAAVREKGVQN [FOXK2]”: the “solubility in G1/S (log2)” value in data set [1] was 0.267. The melting temperature in data set [2] (cell cycle stage: mitosis) stood at 50.7 °C. Also, in data set [3], the “solubility change mitosis (log2)” value was -0.0189.
For “MAAAATMAAAARELVLRAGTSDMEEEEGPLAGGPGLQEPLQLGELDITSDEFILDEVDVHIQANLEDELVKEALKTGVDLRHYSKQVELELQQIEQKSIRDYIQESENIASLHNQITACDAVLERMEQMLGAFQSDLSSISSEIRTLQEQSGAMNIRLRNRQAVRGKLGELVDGLVVPSALVTAILEAPVTEPRFLEQLQELDAKAAAVREQEARGTAACADVRGVLDRLRVKAVTKIREFILQKIYSFRKPMTNYQIPQTALLKYRFFYQFLLGNERATAKEIRDEYVETLSKIYLSYYRSYLGRLMKVQYEEVAEKDDLMGVEDTAKKGFFSKPSLRSRNTIFTLGTRGSVISPTELEAPILVPHTAQRGEQRYPFEALFRSQHYALLDNSCREYLFICEFFVVSGPAAHDLFHAVMGRTLSMTLKHLDSYLADCYDAIAVFLCIHIVLRFRNIAAKRDVPALDRYWEQVLALLWPRFELILEMNVQSVRSTDPQRLGGLDTRPHYITRRYAEFSSALVSINQTIPNERTMQLLGQLQVEVENFVLRVAAEFSSRKEQLVFLINNYDMMLGVLMERAADDSKEVESFQQLLNARTQEFIEELLSPPFGGLVAFVKEAEALIERGQAERLRGEEARVTQLIRGFGSSWKSSVESLSQDVMRSFTNFRNGTSIIQGALTQLIQLYHRFHRVLSQPQLRALPARAELINIHHLMVELKKHKPNF [VPS52]”, the “solubility in G1/S (log2)” value in data set [1] is -0.194. The melting temperature was found to be 51.5 °C in data set [2] (cell cycle stage: G1/S) and 50.4 °C in data set [2] (cell cycle stage: mitosis). Also, the “solubility change mitosis (log2)” value in data set [3] is -0.138.
For “MAAAEEGCSVGAEADRELEELLESALDDFDKAKPSPAPPSTTTAPDASGPQKRSPGDTAKDALFASQEKFFQELFDSELASQATAEFEKAMKELAEEEPHLVEQFQKLSEAAGRVGSDMTSQQEFTSCLKETLSGLAKNATDLQNSSMSEEELTKAMEGLGMDEGDGEGNILPIMQSIMQNLLSKDVLYPSLKEITEKYPEWLQSHRESLPPEQFEKYQEQHSVMCKICEQFEAETPTDSETTQKARFEMVLDLMQQLQDLGHPPKELAGEMPPGLNFDLDALNLSGPPGASGEQCLIM [G3V3G9]”, in that order: -0.172, 51.1 °C, 51.3 °C and -0.158.
On the same counts, the results for “MAAEEKDPLSYFAAYGSSSSGSSDEEDNIEPEETSRRTPDPAKSAGGCRNKAEKRLPGPDELFRSVTRPAFLYNPLNKQIDWERHVVKAPEEPPKEFKIWKSNYVPPPETYTTEKKPPPPELDMAIKWSNIYEDNGDDAPQNAKKARLLPEGEETLESDDEKDEHTSKKRKVEPGEPAKKKK [C1ORF52]” are 0.074, 54.3 °C, 52.5 °C and 0.413.
Take “MAAGERSWCLCKLLRFFYSLFFPGLIVCGTLCVCLVIVLWGIRLLLQRKKKLVSTSKNGKNQMVIAFFHPYCNAGGGGERVLWCALRALQKKYPEAVYVVYTGDVNVNGQQILEGAFRRFNIRLIHPVQFVFLRKRYLVEDSLYPHFTLLGQSLGSIFLGWEALMQCVPDVYIDSMGYAFTLPLFKYIGGCQVGSYVHYPTISTDMLSVVKNQNIGFNNAAFITRNPFLSKVKLIYYYLFAFIYGLVGSCSDVVMVNSSWTLNHILSLWKVGNCTNIVYPPCDVQTFLDIPLHEKKMTPGHLLVSVGQFRPEKNHPLQIRAFAKLLNKKMVESPPSLKLVLIGGCRNKDDELRVNQLRRLSEDLGVQEYVEFKINIPFDELKNYLSEATIGLHTMWNEHFGIGVVECMAAGTIILAHNSGGPKLDIVVPHEGDITGFLAESEEDYAETIAHILSMSAEKRLQIRKSARASVSRFSDQEFEVTFLSSVEKLFK [ALG11]”: the “solubility in G1/S (log2)” value in data set [1] worked out at 0.114. The substance further had a melting temperature in data set [2] (cell cycle stage: mitosis) of 52.4 °C. Further, in data set [3], the “solubility change mitosis (log2)” value is -0.199.
As to “MAAPSEVAAIAPGEGDGGGGGFGSWLDGRLEALGVDRAVYGAYILGILQEEEEEEKLDALQGILSAFLEEDSLLNICKEIVERWSETQNVVTKVKKEDEVQAIATLIEKQAQIVVKPRMVSEEEKQRKAALLAQYADVTDEEDEADEKDDSGATTMNIGSDKLLFRNTNVEDVLNARKLERDSLRDESQRKKEQDKLQRERDKLAKQERKEKEKKRTQRGERKR [CCDC43]”, the “solubility in G1/S (log2)” value in data set [1] came to 0.483. For the same substance, the figures for the melting temperature in data set [2] (cell cycle stage: G1/S) and in data set [2] (cell cycle stage: mitosis) were 53.8 °C and 53.7 °C, respectively. Further, in data set [3], the “solubility change mitosis (log2)” value is 0.216.
For “MAAPWASLRLVAPMWNGRIRGIHRLGAAVAPEGNQKKKRTILQFLTNYFYDVEALRDYLLQREMYKVHEKNRSYTWLEKQHGPYGAGAFFILKQGGAVKFRDKEWIRPDKYGHFSQEFWNFCEVPVEAVDAGDCDINYEGLDNLLRLKELQSLSLQRCCHVDDWCLSRLYPLADSLQELSLAGCPRISERGLACLHHLQNLRRLDISDLPAVSNPGLTQILVEEMLPNCEVVGVDWAEGLKSGPEEQPRDTASPVPA [ATP5SL]”, in that order: 0.174, 52.9 °C, 52 °C and -0.0178.
On the same counts, the results for “MADDFGFFSSSESGAPEAAEEDPAAAFLAQQESEIAGIENDEGFGAPAGSHAAPAQPGPTSGAGSEDMGTTVNGDVFQEANGPADGYAAIAQADRLTQEPESIRKWREEQRKRLQELDAASKVTEQEWREKAKKDLEEWNQRQSEQVEKNKINNRIADKAFYQQPDADIIGYVASEEAFVKESKEETPGTEWEKVAQLCDFNPKSSKQCKDVSRLRSVLMSLKQTPLSR [CLTB]” are 0.159, 56.3 °C, 53.3 °C and 0.651.
As to “MADEATRRVVSEIPVLKTNAGPRDRELWVQRLKEEYQSLIRYVENNKNADNDWFRLESNKEGTRWFGKCWYIHDLLKYEFDIEFDIPITYPTTAPEIAVPELDGKTAKMYRGGKICLTDHFKPLWARNVPKFGLAHLMALGLGPWLAVEIPDLIQKGVIQHKEKCNQ [UFC1]”, in data set [1], the “solubility in G1/S (log2)” value amounted to 0.134. Besides, the melting temperature came out at 53.3 °C in data set [2] (cell cycle stage: G1/S) and 52.9 °C in data set [2] (cell cycle stage: mitosis). Also, in data set [3], the “solubility change mitosis (log2)” value was 0.23.
For “MADQRQRSLSTSGESLYHVLGLDKNATSDDIKKSYRKLALKYHPDKNPDNPEAADKFKEINNAHAILTDATKRNIYDKYGSLGLYVAEQFGEENVNTYFVLSSWWAKALFVFCGLLTCCYCCCCLCCCFNCCCGKCKPKAPEGEETEFYVSPEDLEAQLQSDEREATDTPIVIQPASATETTQLTADSHPSYHTDGFN [DNAJC5]”, in that order: 0.0289, 56 °C, 53.5 °C and -0.273.
“MAEPSVESSSPGGSATSDDHEFDPSADMLVHDFDDERTLEEEEMMEGETNFSSEIEDLAREGDMPIHELLSLYGYGSTVRLPEEDEEEEEEEEEGEDDEDADNDDNSGCSGENKEENIKDSSGQEDETQSSNDDPSQSVASQDAQEIIRPRRCKYFDTNSEVEEESEEDEDYIPSEDWKKEIMVGSMFQAEIPVGICRYKENEKVYENDDQLLWDPEYLPEDKVIIFLKDASRRTGDEKGVEAIPEGSHIKDNEQALYELVKCNFDTEEALRRLRFNVKAAREELSVWTEEECRNFEQGLKAYGKDFHLIQANKVRTRSVGECVAFYYMWKKSERYDFFAQQTRFGKKKYNLHPGVTDYMDRLLDESESAASSRAPSPPPTASNSSNSQSEKEDGTVSTANQNGVSSNGPGEILNKEEVKVEGLHINGPTGGNKKPLHADMDTNGYETDNLTTDPKLAHMTARNENDFDEKSERPAKRRRVNSNGKESPGSSEFFQEAVSHGKFEELENTDD [MIER1]”: the “solubility in G1/S (log2)” value in data set [1] turned out to be 0.00102. The melting temperature worked out at 53.4 °C in data set [2] (cell cycle stage: G1/S) and 52.2 °C in data set [2] (cell cycle stage: mitosis). Moreover, in data set [3], the “solubility change mitosis (log2)” value was -0.0394.
Consider “MAERPEDLNLPNAVITRIIKEALPDGVNISKEARSAISRAASVFVLYATSCANNFAMKGKRKTLNASDVLSAMEEMEFQRFVTPLKEALEAYRREQKGKKEASEQKKKDKDKKTDSEEQDKSRDEDNDEDEERLEEEEQNEEEEVDN [POLE3]”, for which the “solubility in G1/S (log2)” value in data set [1] was 0.357. Further, in data set [2] (cell cycle stage: G1/S), the melting temperature came to 49.2 °C. Also, the “solubility change mitosis (log2)” value in data set [3] worked out at 0.5.
As for “MAGVSYAAPWWVSLLHRLPHFDLSWEATSSQFRPEDTDYQQALLLLGAAALACLALDLLFLLFYSFWLCCRRRKSEEHLDADCCCTAWCVIIATLVCSAGIAVGFYGNGETSDGIHRATYSLRHANRTVAGVQDRVWDTAVGLNHTAEPSLQTLERQLAGRPEPLRAVQRLQGLLETLLGYTAAIPFWRNTAVSLEVLAEQVDLYDWYRWLGYLGLLLLDVIICLLVLVGLIRSSKGILVGVCLLGVLALVISWGALGLELAVSVGSSDFCVDPDAYVTKMVEEYSVLSGDILQYYLACSPRAANPFQQKLSGSHKALVEMQDVVAELLRTVPWEQPATKDPLLRVQEVLNGTEVNLQHLTALVDCRSLHLDYVQALTGFCYDGVEGLIYLALFSFVTALMFSSIVCSVPHTWQQKRGPDEDGEEEAAPGPRQAHDSLYRVHMPSLYSCGSSYGSETSIPAAAHTVSNAPVTEYMSQNANFQNPRCENTPLIGRESPPPSYTSSMRAKYLATSQPRPDSSGSH [TTYH3]”, the “solubility in G1/S (log2)” value in data set [1] turned out to be 0.256. Besides, the melting temperature was determined as 55.3 °C in data set [2] (cell cycle stage: G1/S) and 56.1 °C in data set [2] (cell cycle stage: mitosis). For the same substance, the “solubility change mitosis (log2)” value in data set [3] was -0.146.
